Target: human factor X (human, UniProt P00742 41-179; P00742 183-488)
Assay: cell-based or functional assay

Sequence of human factor X (P00742 41-179, chain 1 of 2): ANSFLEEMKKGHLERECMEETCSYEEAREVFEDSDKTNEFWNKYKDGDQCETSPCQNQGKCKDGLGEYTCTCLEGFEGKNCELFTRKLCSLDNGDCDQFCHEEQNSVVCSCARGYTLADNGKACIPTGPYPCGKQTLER
Sequence of human factor X (P00742 183-488, chain 2 of 2): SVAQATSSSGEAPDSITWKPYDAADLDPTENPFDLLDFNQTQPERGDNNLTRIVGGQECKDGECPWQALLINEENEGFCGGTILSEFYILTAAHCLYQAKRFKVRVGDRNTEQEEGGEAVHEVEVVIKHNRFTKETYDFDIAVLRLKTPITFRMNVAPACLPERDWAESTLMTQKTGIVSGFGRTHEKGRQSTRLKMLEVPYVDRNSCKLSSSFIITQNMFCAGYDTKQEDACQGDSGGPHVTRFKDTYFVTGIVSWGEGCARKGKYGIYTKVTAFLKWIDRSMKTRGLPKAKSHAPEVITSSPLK

B1: IXAX-1280.0999.0325 (bispecific antibody, human IgG4 S228P, lambda)
heavy 1: EVQLVESGGGFVQPGGSLRLSCAVSGFRFNSYWMSWVRQAPGKGLEWVANINQDGSRKFYVASVKGRFTMSRDNAKKSVYVQMNSLRAEDTAVYYCAREGYSSIKYYGMDVWGQGTTVTVSSASTKGPSVFPLAPCSRSTSESTAALGCLVKDYFPEPVTVSWNSGALTSGVHTFPAVLQSSGLYSLSSVVTVPSSSLGTQTYTCNVDHKPSNTKVDKRVESKYGPPCPPCPAPEFLGGPSVFLFPPKPKDTLMISRTPEVTCVVVDVSQEDPEVQFNWYVDGVEVHNAKTKPREEQYNSTYRVVSVLTVLHQDWLNGKEYKCKVSNKGLPSSIEKTISKAKGQPREPQVYTLPPSQEEMTKNQVSLTCLVKGFYPSDIAVEWESNGQPENNYKTTPPVLDSDGSFFLYSKLTVDKSRWQEGNVFSCSVMHEALHNHYTQESLSLSP
heavy 2: QVQLIQSGAKVKKPGASVKVSCKASRYKFTSYYMHWVRQAPGQGLEWMGIINPKSGSTSYAQKFQGRVTMTRDTSTSTVYMELSSLRSEDTAVYYCARDGYGSFSRLIQLWGQGTLVTVSSASTKGPSVFPLAPCSRSTSESTAALGCLVKDYFPEPVTVSWNSGALTSGVHTFPAVLQSSGLYSLSSVVTVPSSSLGTQTYTCNVDHKPSNTKVDKRVESKYGPPCPPCPAPEFLGGPSVFLFPPKPKDTLMISRTPEVTCVVVDVSQEDPEVQFNWYVDGVEVHNAKTKPREEQYNSTYRVVSVLTVLHQDWLNGKEYKCKVSNKGLPSSIEKTISKAKGQPREPQVYTLPPSQKEMTKNQVSLTCLVKGFYPSDIAVEWESNGQPENNYKTTPPVLDSDGSFFLYSKLTVDKSRWQEGNVFSCSVMHEALHNHYTQKSLSLSP
light: YVLTQPPSVSVAPGETARITCGGDNIGRKSVYWYQQKSGQAPVLVIYYDSDRPSGIPERFSGSNSGNTATLTISRVEAGDEADYYCQVWDGSSDHWVFGGGTKLTVLGQPKAAPSVTLFPPSSEELQANKATLVCLISDFYPGAVTVAWKADSSPVKAGVETTTPSKQSNNKYAASSYLSLTPEQWKSHKSYSCQVTHEGSTVEKTVAPTECS
EC50, Hyphen chromogenic FVIII mimetic activity assay (FXa generation with added FX and FIXa in diluted FVIII deficient plasma; OD405): 5.92 nM
